Assay results published in the supplement of paper PMC12042874.
± gives the uncertainty stated by the source.

What was measured:
[1] = amyloid nucleation score (Sup35N fusion, yeast selection) (log enrichment); library NNK2; higher = more nucleation; inactive = no reads after selection
Outline: (§1)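 Nucleation score: DiMSum log enrichment of output over input reads, centred on the mode score of non-aggregating sequences. Only sequences with at least 100 input reads were kept. Reads came from Illumina sequencing of plasmid inserts before and after 7 days of growth at 30°C without adenine and uracil, in psi-negative yeast expressing Sup35N fused to peptides of 20 random codons after 24 hours of induction with 100 μM copper sulfate.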

[2] = amyloid nucleation score (Sup35N fusion, yeast selection) (log enrichment); library NNK3; higher = more nucleation; inactive = no reads after selection
Outline: as §1

Substance	amyloid nucleation score [1]	amyloid nucleation score [2]
AAIMDTKVWLPETWHTF	4.86 ± 0.049	
AALPFHEVPTGLMITRAFWD	3.72 ± 0.13	
YFSMIVVGCVNFKELPDNRV		1.78 ± 0.086
YFSQVGRDCMFR		inactive
YFVFKIRKDVELLVYI		inactive
YFYKNLSSFHFGKMRLK		inactive
YFYLSICDVSMVGSEFIYSR		0.373 ± 0.2
YGCCVSGMYVALGLQ		2.8 ± 0.068
YGEEEVE		inactive
YGETAMRRSLTSLYNHMSLN		inactive
YGFNNWYKPSDLSRTPSESG		inactive
YGGDWCARTPCLSRVNSVKP		inactive
YGILLFGVSWWWAVSFFENF		inactive
YGPKV		inactive
YGRLLVGFLTITV		inactive
YGSMMHWKSLCLSSIC		inactive
YGSNSLPYKTGVYVKLSCN		inactive
YGSYVWYSLLVREWLNSPGY		inactive
YGTMFLENTYNPFPVGSHVF		inactive
YGTSATKRTALFWYDMTKFG		inactive
YHLSSMVTVWKDSVMLAT		inactive
YHRTFWSFGSKVFLRVNWCR		inactive
YHTYKDSRTGFFMGQHSCMS		inactive

Substance	amyloid nucleation score [1]	amyloid nucleation score [2]
YIGIHLTSFRSTSSYYDRVL		inactive
YIGTYLLMSYGDSRPRKEMR		1.47 ± 0.088
YIHIGAM		inactive
YIKRTIFTYYYRERMIADSY		inactive
YILNITNLWSLCLCRLCRKD		3.08 ± 0.078
YINSFCTRKSYIY		inactive
YIQSNCEFMHPVCIIIFACV		1.16 ± 0.11
YIRIDTGLLCVCGLSQEGVV		inactive
YISSFRGDIVIY		inactive
YISSPSIWLCISCEHRGTSA		2.92 ± 0.07
YIYDSLWW		inactive
YIYVIGWGNVLCGI		2.22 ± 0.079
YKANFMGFSIYKRVGTRVWQ		0.15 ± 0.75
YKDIRCGWLMFGVANLQ		inactive
YKFGVTPWLRFILSNVRKMM		inactive
YKGFKRIGLEGQFVSSYLFY		inactive
YKQHYRRSRHCIKHYVGGSE		inactive
YKVKIPMVCAVISGKSTWVG		inactive
YLDKCIVVCFRVRNSNSFWL		2.42 ± 0.065
YLDKRYVVGVFMLDSNLDLS		inactive
YLDNVFNGPAFLYSGSRDR		1.02 ± 0.18
YLDRKVCSGNALRYLK		inactive
YLFSELYMLNLSRFAK		inactive

Substance	amyloid nucleation score [1]	amyloid nucleation score [2]
YLGRFNSKFMTSVLIMYYP		inactive
YLICLVWKELLARAHIAELC		0.28 ± 0.2
YLIGRGVMVFNFPWLLHHTN		1.58 ± 0.1
YLIGYDT		0.366 ± 0.65
YLLCF		inactive
YLLLDYGTRSFLYDRYRYIR		0.067 ± 0.68
YLLMTGVWWYYQMCVVVYM		inactive
YLSGIPTVVIHVIFGMKDW		inactive
YLSGKLFTRAP		inactive
YLSPVKRRYD		inactive
YLTCVVKRTVH		inactive
YLVYNYFMRDHWGLSVYLSR		0.641 ± 0.18
YLWARNGDLLLSCCSLNSCM		2.52 ± 0.061
YMCGSGCF		inactive
YMCKCSYVEMTHSA		inactive
YMGPKDSELDSNRAGCDMSC		inactive
YMGYWFKFFTFSGDQVTIGR		0.718 ± 0.14
YMLLQERLECSSLVDVSYVR		inactive
YMRAIHRCCAYLVRGLGSGT		inactive
YMRSIGSIFFILYCMQSAHG		0.121 ± 0.33
YNGFSLIRFILFAHG		inactive
YNLRYLVYYLDLLSPVNQMG		inactive
YNNTVCL		inactive

Substance	amyloid nucleation score [1]	amyloid nucleation score [2]
YNSFEFGVMSAL		inactive
YNVSINYVGENDGWEACFLS		0.666 ± 0.12
YPHREQVRRSL		inactive
YPRPLFVRNLDVFHWLYTAV		inactive
YQLFWRLALFCPVYGCVYLM		-0.027 ± 0.35
YQVHWFSNYTTAWMNYVSTV		inactive
YQVRV		0.056 ± 0.33
YRAFTFIGCLNGLTNQHFFY		2.4 ± 0.059
YRDFSEGSFPLIRVLMGMVG		inactive
YRDRFAKSSYKSPKMYQYGS		inactive
YRELSTLREEMHIRY		inactive
YRGKIGTWECGVISYETAAT		inactive
YRGLGRDSHTHCRNHVLLTL		inactive
YRINDKSFNVISGIVFSVVR		inactive
YRKLVVSPLGILPKYRTPCC		inactive
YRLAN		inactive
YRLQSLNPPISPVNHTNCSS		inactive
YRLRNSS		inactive
YRMSR		1.36 ± 0.1
YRNLWNIHTVISIASL		inactive
YRQRWSRLCAGQSLYNCGKC		inactive
YRRAREWGNDDFLNG		0.785 ± 0.12
YRYLVFLRLNLSLRILFGFK		inactive

Substance	amyloid nucleation score [1]	amyloid nucleation score [2]
YRYNNLKRCGNSAQWLAISS		-0.08 ± 0.34
YSAAYEIIIFICQCCNLKVG		inactive
YSATGIPSCWRLNFVENLRT		inactive
YSDLKSFLLNVIGRNKSIGM		inactive
YSEKDLIHRRIFVVNGRS		1.13 ± 0.12
YSGLDSCVD		inactive
YSIKNGYGFRQSWYKQVLKL		inactive
YSKEWVFISIIQKLADGQCN		-0.182 ± 0.66
YSKFFTENVYNSISGAMPHF		inactive
YSLNCYYFSLGLN		inactive
YSLNGAY		inactive
YSLRVHSAYIVVKYII		inactive
YSLVYAYMESTMYYCLGLRM		inactive
YSMRRTDIHPVVFRQ		inactive
YSNRVGNAYMGSLKTSWHVM		inactive
YSRMCLVY		inactive
YSRSGISFFTGRHKLFSMYG		inactive
YSRTDSQGMTNEMVNLGVDV		inactive
YSSQLILTYDTRL		inactive
YSVAHQIPDDDRQGE		inactive
YSVNMLFAAS		inactive
YSVPRKSIICIKFDGFWRCV		1.96 ± 0.096
YSVVDEKVALSSSWHSCLPL		inactive

Substance	amyloid nucleation score [1]	amyloid nucleation score [2]
YTCNSWILDANNLANEPVSK		inactive
YTDTYSSLKDLPTGINCYNI		inactive
YTIMRNYGFLGARISRGSGS		inactive
YTLPGIQAGFWARCVSHTRL		inactive
YTLVDRSICT		inactive
YTPGLPSDFN		inactive
YTSGLVNFVVMDPGL		inactive
YTSLCASVNGGLTIS		-0.464 ± 0.8
YTWDVGHLKNSSSVYWKLLR		inactive
YVCCYARNDRRFSWERRHLS		inactive
YVCDRL		inactive
YVCGKF		inactive
YVCLYEDLTYIA		inactive
YVCRRVSQDVRNLTKSVMCV		inactive
YVGLDVVPGVLGIGFILLYD		inactive
YVNECFSVSLICCYMLFYN		1.52 ± 0.072
YVNSNWNNISAQASNSFSGR		inactive
YVNTDVIVHENVFLLNSHNS		1.69 ± 0.089
YVRIQRMRFYSCEHWVHHIG		inactive
YVSKVYLDH		inactive
YVVAGS		inactive
YVVHRLSRVFQLANLYYYAK		inactive
YVVREHYNGCATPN		inactive

Substance	amyloid nucleation score [1]	amyloid nucleation score [2]
YWDCGLCVNEMGRFICCLGG		inactive
YWIAIFTLHFLLDPRFRNSM		inactive
YWQWSNV		inactive
YWSAVHEDYHTASMMEPLWW		inactive
YWVLRFRSSCGYSRMRLGPR		inactive
YYAFPLYKKSFYRIPTNVWA		inactive
YYLCVVPLRLLGRCASWSFG		inactive
YYLNKVVSIVNRLFVAFAPC		inactive
YYLRKVKRKENTSMLHAAFS		inactive
YYLSLHR		inactive
YYNDSPAFHLRVR		inactive
YYNVAMRCRSHHTRMSIFWC		inactive
YYRSCWLSLCWCYHYCYGVD		0.346 ± 0.61
YYSGCVLIRRILYLGRVGSP		inactive
YYSMTKNARCGHSFEAKSLF		inactive
YYSSWLFTGMVGSYTFTALC		inactive
YYVSRVSKMCWLRDVRWISI		inactive
YYWTKGGFKEITI		inactive
YYYGKWYLYEKHSVVFRGCR		inactive
